Experimental data from patent US20200370050A1 (published 2020).

How the values were obtained:
FLAG-BRAF (1-766) = biological target: T1, FLAG-BRAF (1-766) (Homo sapiens (Human), UniProt P15056 1-766); assay: co-immunoprecipitation from M7609 cell lysate on anti-FLAG M2 magnetic beads, Western blot with anti-GSTP1
T1 construct: Expressed in M7609 cells from plasmid pCV6-Myc-DDK-BRAF (OriGene Technologies); also called full-length BRAF protein; BRAF with the extension; not shown: FLAG tag (DDK tag) at the C-terminus
Procedure: (§1) The transfected cells were used for coimmunoprecipitation. The cells were lysed by incubation in 0.5% NP-40 lysis buffer (0.5% NP-40, 20 mM HEPES pH 7.4, 150 mM NaCl, 1 mM MgCl₂, 1 mM EGTA, 10% glycerol, Complete, Mini (Roche Diagnostics) and PhosSTOP (Roche Diagnostics)) on ice for 30 min. Centrifugation was performed to give a supernatant as a cell lysate. The cell lysates obtained from the samples and containing the same amount of protein were each incubated with anti-FLAG M2 magnetic beads (Sigma-Aldrich) at 4° C. for 2 h to overnight, so that each FLAG-tagged protein was attached to the beads. The beads were washed four times with 0.5% NP-40 lysis buffer.
(§2) Each sample for western blotting was prepared from the beads obtained after the coimmunoprecipitation, and then subjected to SDS-PAGE for protein separation. The separated protein was transferred to a PVDF membrane. The membrane was incubated with a primary antibody solution and then washed. The primary antibody used was an anti-GSTP1 antibody (Medical & Biological Laboratories Co., Ltd.), an anti-FLAG antibody (F3165, Sigma-Aldrich), or an anti-GAPDH antibody (Abcam plc.). The membrane was then incubated with a secondary antibody (goat secondary antibody to rabbit or mouse IgG) solution and then washed. The signal on the membrane was visualized using ECL or ECL prime Western blotting detection system (GE Healthcare). […]

FLAG-CRAFΔN (193-648) = biological target: T2, FLAG-CRAFΔN (193-648) (human, UniProt P04049 193-648); assay: as above
T2 construct: Expressed in M7609 cells from a pCMV6-Entry vector; also called CRAF protein with a deletion at the N-terminal moiety; not shown: FLAG tag at the C-terminus (plasmid pCMV6-Myc-DDK-CRAFΔN)
Procedure: as §1, §2

T1 sequence (P15056 whole entry): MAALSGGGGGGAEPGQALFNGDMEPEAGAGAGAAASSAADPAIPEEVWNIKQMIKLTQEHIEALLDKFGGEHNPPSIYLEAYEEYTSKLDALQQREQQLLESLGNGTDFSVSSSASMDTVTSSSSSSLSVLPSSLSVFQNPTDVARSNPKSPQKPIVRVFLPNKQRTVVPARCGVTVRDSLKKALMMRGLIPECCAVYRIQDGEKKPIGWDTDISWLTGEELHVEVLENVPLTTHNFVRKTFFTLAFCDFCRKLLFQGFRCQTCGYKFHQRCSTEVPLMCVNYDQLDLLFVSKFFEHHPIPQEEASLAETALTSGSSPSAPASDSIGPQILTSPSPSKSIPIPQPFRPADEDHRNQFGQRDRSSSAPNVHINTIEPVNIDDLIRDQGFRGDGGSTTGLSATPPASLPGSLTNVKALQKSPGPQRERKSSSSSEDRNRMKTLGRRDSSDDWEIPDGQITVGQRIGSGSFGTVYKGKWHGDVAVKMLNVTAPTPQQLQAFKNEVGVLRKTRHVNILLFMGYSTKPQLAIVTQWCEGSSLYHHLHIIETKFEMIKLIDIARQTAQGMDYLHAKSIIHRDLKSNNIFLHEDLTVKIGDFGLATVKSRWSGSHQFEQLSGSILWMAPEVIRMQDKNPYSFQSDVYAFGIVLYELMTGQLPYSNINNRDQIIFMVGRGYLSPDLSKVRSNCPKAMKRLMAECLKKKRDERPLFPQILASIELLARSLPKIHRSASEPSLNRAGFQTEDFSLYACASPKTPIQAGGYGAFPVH

binding result (FLAG-BRAF (1-766)): no binding | binding result (FLAG-CRAFΔN (193-648)): no binding
B1: GSTP1 (endogenous, in lysates of KRAS mutation-positive colon cancer cells) (enzyme)
chain: PPYTVVYFPVRGRCAALRMLLADQGQSWKEEVVTVETWQEGSLKASCLYGQLPKFQDGDLTLYQSNTILRHLGRTLGLYGKDQQEAALVDMVNDGVEDLRCKYISLIYTNYEAGKDDYVKALPGQLKPFETLLSQNQGGKTFIVGDQISFADYNLLDLLLIHEVLAPGCLDAFPLLSAYVGRLSARPKLKAFLASPEYVNLPINGNGKQ
notes: also called glutathione S-transferase pi; endogenous GSTP1
